# Test results published in US20150351390A1, “COMPOSITIONS AND METHODS FOR AUXIN-ANALOG CONJUGATION” (PIONEER HI-BRED INTERNATIONAL, INC., priority 2012, published 2015).
# Experiments:
# [1] = LC-MS assay of GH3 conjugation of 2,4-D with Asp or Glu; assay type: biochemical; conditions: 5 mM 2,4-D substrate; for kcat (hrs−1) 2,4-D-Asp: conjugation of 2,4-D with Asp by recombinant GH3 protein, 2,4-D-Asp product by LC-MS; for kcat (hrs−1) 2,4-D-Glu: conjugation of 2,4-D with Glu by recombinant GH3 protein, 2,4-D-Glu product by LC-MS
# Procedure, shortened: (§1)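 Rxn: 20 mM Tris-HCl pH 8.0, 5 mM MgCl2, 1 mM DTT, 5 mM ATP, 5 mM auxin, 5 mM Asp/Glu, 44–164 μg/mL purified His-GH3; 30° C., 3 h. MeOH quench, supernatant diluted 20×, LC-MS vs conjugate standards.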
# [2] = LC-MS assay of GH3 conjugation of IAA with Asp or Glu; assay type: biochemical; conditions: for kcat (hrs−1) IAA-Asp: conjugation of IAA with Asp by recombinant GH3 protein, IAA-Asp product by LC-MS; for kcat (hrs−1) IAA-Glu: conjugation of IAA with Glu by recombinant GH3 protein, IAA-Glu product by LC-MS
# Procedure, shortened: as §1
Molecule,"kcat (hrs−1) 2,4-D-Asp [1] [h⁻¹]","kcat (hrs−1) 2,4-D-Glu [1] [h⁻¹]",kcat (hrs−1) IAA-Asp [2] [h⁻¹],kcat (hrs−1) IAA-Glu [2] [h⁻¹]
"AIGH3-2: GH3 protein, accession XP_002868993 (protein, listed as Arabidopsis lyrata) MAVDSPLQSRMVSPTTSEKDVKALKFIEEMTRNPDSVQEKVLGEILSRNSNTEYLKRFDINGAIDRNTFKNKVPVVTYEDLKPEIQRISNGDRSPILSSHPITEFLTSSGTSAGERKLMPTIEEDLDRRQLLYSLLMPVMNLYVPGLDKGKGLYFLFVKSESKTSGGLPARPVLTSYYKSDHFRRRPYDPYNVYTSPNEAILCSDSSQSMYAQMLCGLLMRHEVLRLGAVFASGLLRAISFLQNNWKELARDISTGTLSSRIFDPTIKNRMSKILIKPDQELAEFLIGVCSQENWEGIITKIWPNTKYLDVIVTGAMAQYIPTLEYYSGGLPMACTMYASSESYFGINLKPMCKPSEVSYTIMPNMAYFEFLPHNHDGDGATEASLDETSLVELADVEVGKEYELVITTYAGLYRYRVGDILRVTGFHNSAPQFKFIRRKNVLLSIESDKTDEAELQKAVENASRLFAEQGTRVIEYTSYAETKTIPGHYVIYWELLGRDQSNALPSEEVMAKCCLEMEESLNSVYRQSRVADKSIGPLEIRLVQNGTFEELMDYAISRGASINQYKVPRCVSFTPIMELLDSRVVSAHFSPSLPHWSPERRR",1.903,0.309,583.500,13.953
"AtGH3-5: GH3 protein, accession O81829 (protein, listed as Arabidopsis thaliana) MPEAPKKESLEVFDLTLDQKNKQKLQLIEELTSNADQVQRQVLEEILTRNADVEYLRRHDLNGRTDRETFKNIMPVITYEDIEPEINRIANGDKSPILSSKPISEFLTSSGTSGGERKLMPTIEEELDRRSLLYSLLMPVMSQFVPGLENGKGMYFLFIKSESKTPGGLPARPVLTSYYKSSHFKERPYDPYTNYTSPNETILCSDSYQSMYSQMLCGLCQHQEVLRVGAVFASGFIRAIKFLEKHWIELVRDIRTGTLSSLITDPSVREAVAKILKPSPKLADFVEFECKKSSWQGIITRLWPNTKYVDVIVTGTMSQYIPTLDYYSNGLPLVCTMYASSECYFGVNLRPLCKPSEVSYTLIPSMAYFEFLPVHRNNGVTNSINLPKALTEKEQQELVDLVDVKLGQEYELVVTTYAGLCRYRVGDLLRVTGFKNKAPQFSFICRKNVVLSIDSDKTDEVELQNAVKNAVTHLVPFDASLSEYTSYADTSSIPGHYVLFWELCLDGNTPIPPSVFEDCCLAVEESFNTVYRQGRVSDKSIGPLEIKIVEPGTFDKLMDYAISLGASINQYKTPRCVKFAPIIELLNSRVVDSYFSPKCPKWVPGHKQWGSN",2.309,0.795,578.727,68.086
"AtGH3-2: GH3 protein, accession AEE86787 (protein, listed as Arabidopsis thaliana) MAVDSPLQSRMVSATTSEKDVKALKFIEEMTRNPDSVQEKVLGEILTRNSNTEYLKRFDLDGVVDRKTFKSKVPVVTYEDLKPEIQRISNGDCSPILSSHPITEFLTSSGTSAGERKLMPTIEEDLDRRQLLYSLLMPVMNLYVPGLDKGKGLYFLFVKSESKTSGGLPARPVLTSYYKSDHFKRRPYDPYNVYTSPNEAILCSDSSQSMYAQMLCGLLMRHEVLRLGAVFASGLLRAISFLQNNWKELARDISTGTLSSRIFDPAIKNRMSKILTKPDQELAEFLVGVCSQENWEGIITKIWPNTKYLDVIVTGAMAQYIPTLEYYSGGLPMACTMYASSESYFGINLKPMCKPSEVSYTIMPNMAYFEFLPHNHDGDGAAEASLDETSLVELANVEVGKEYELVITTYAGLYRYRVGDILRVTGFHNSAPQFKFIRRKNVLLSVESDKTDEAELQKAVENASRLFAEQGTRVIEYTSYAETKTIPGHYVIYWELLGRDQSNALMSEEVMAKCCLEMEESLNSVYRQSRVADKSIGPLEIRVVRNGTFEELMDYAISRGASINQYKVPRCVSFTPIMELLDSRVVSAHFSPSLPHWSPERRR",1.200,0.131,511.761,30.640
"PtGH3-7: GH3 protein, accession EEE84166 (protein, listed as Populus trichocarpa) MLPVFDPNDNEAGLKLLEDLTNNACQIQQQVLEEILATNLHTEYLKSFLNGDSGKENFKNKVPIVNYEDIKPCIERIANGEPSSIISTQPITELLTSSGTSGGQPKIMPSTAEELERKTFFYNLLVPVMNKYVDGLDQGKAMYLLFIKPEISTPSGLMARPVLTSYYKSNNFRNRAFNRYNVYTSPDETILCSDSKQSMYCQLLCGLVQRDEVLRVGAIFASAFLRAIKFLEEYLKELCSNIRTGSVSDWITDPNCRNAVLSILSKPNSELADLIEDECSGKSWEGIIKKLWPRTKYIEVIVTGSMAQYIPTLEFYSGGLPLVSTMYGSSECYLGINFKPLSNPYDVSYTLLPNMAYFEFLPVDNNHKEVVPDVQCNGVSVTDRNGKEKVEAVDLVDVKLGHYYELIVTTFTGLYRYRVGDILMVTGFYNNAPQFRFVHRRNVVLSIDTDKTNEEDLLKAVTQAKVLLEPLGFLLTEYTSFADTASIPGHYVLFWELKMRGTNDLPELDPVIMEQCCSIVEESLDSVYRRCRKKDKSIGPLEVRVVTHGTFDALMDFCVSQGSSVNQYKTPRCIKSEEALKILDSRVVGRFSSNKTPFWEPFRIET",0.547,3.487,38.668,450.548
"AtGH3-4: GH3 protein, accession Q9LQ68 (protein, listed as Arabidopsis thaliana) MAVDSLLQSGMASPTTSETEVKALKFIEEITRNPDSVQEKVLGEILSRNSNTEYLKRFDLNGAVDRKSFKSKVPVVIYEDLKTDIQRISNGDRSPILSSHPITEFLTSSGTSAGERKLMPTIEEDINRRQLLGNLLMPVMNLYVPGLDKGKGLYFLFVKSESTTSGGLPARPALTSYYKSDYFRTSDSDSVYTSPKEAILCCDSSQSMYTQMLCGLLMRHEVNRLGAVFPSGLLRAISFLQNNWKELSQDISTGTLSSKIFDHAIKTRMSNILNKPDQELAEFLIGVCSQENWEGIITKIWPNTKYLDVIVTGAMAEYIPMLEYYSGGLPMASMIYASSESYFGINLNPMCKPSEVSYTIFPNMAYFEFLPHNHDGDGGVEATSLVELADVEVGKEYELVITTYAGLYRYRVGDILRVTGFHNSAPQFKFIRRENVLLSIESDKTDEADLQKAVENASRLLAEQGTRVIEYTSYADTKTIPGHYVIYWELLSRDQSNALPSDEVMAKCCLEMEESLNAVYRQSRVSDKSIGPLEIRVVQNGTFEELMDFSISRGSSINQYKVPRCVSLTPIMKLLDSRVVSAHFSPSLPHWSPERRH",2.032,0.594,414.602,37.932
"AtGH3-1: GH3 protein, accession O82333 (protein, listed as Arabidopsis thaliana) MAVDSNLSSPLGPPACEKDAKALRFIEEMTRNADTVQENLLAEILARNADTEYLRRFNLCGATDRDTFKTKIPVITYEDLQPEIQRIADGDRSPILSAHPISEFLTSSGTSAGERKLMPTIKEELDRRQLLYSLLMPVMNLYVPGLDKGKGMYFLFVKSETKTPGGLPARPVLTSYYKSEHFRSRPYDPYNVYTSPNEAILCPDSFQSMYTQMLCGLLDRLSVLRVGAVFASGLLRAIRFLQLHWSRFAHDIELGCLDSEITDPSIRQCMSGILKPDPVLAEFIRRECKSDNWEKIITRIWPNTKYLDVIVTGAMAQYIPTLEYYSGGLPMACTMYASSECYFGLNLNPMSKPSEVSYTIMPNMAYFEFIPLGGTKAVELVDVNIGKEYELVVTTYAGLCRYRVGDILRVTGFHNSAPQFHFVRRKNVLLSIDSDKTDESELQKAVENASSILHEECGSRVAEYTSYADTSTIPGHYVLYWELLVRDGARQPSHETLTRCCLGMEESLNSVYRQSRVADNSVGPLEIRVVRNGTFEELMDYAISRGASINQYKVPRCVNFTPIVELLDSRVVSAHFSPSLPHWTPERRRR",1.188,0.136,437.707,19.230
